Results taken from KR20240010698A.

What was measured:
[1] = target: FITC-labelled recombinant human HER2 (human) (UniProt P04626); experiment: nanoparticle flow cytometry of CDV incubated with FITC-HER2
[2] = target: FITC-labelled recombinant human HER2 (human) (UniProt P04626); experiment: flow cytometry, CDV on aldehyde/sulfate latex beads, FITC-HER2 titrated

percent of CDV with FITC fluorescence [1]: 44.5%
EC50 [2]: 0.94 µg/mL
Substance: scTTZ-gLAMP1 (trastuzumab scFv fused to glycosylated LAMP1) on cell-derived vesicles
